Experimental data taken from article PMC4482781 (Nature neuroscience, 2015).

What was measured:
[1] = test system: AD–derived endothelial monolayers; experiment: Aβ transcytosis across AD–derived endothelial monolayers; type: in vitro ADME, human; conditions: Aβ40 (1 nM) per Fig. 8b
[2] = test system: primary human brain endothelial cells (BEC); experiment: Colocalization of Aβ–LRP1 complex with PICALM by immunostaining in BEC; type: cell-based; conditions: 250 nM, 30 s

## Aβ: amyloid β–peptide, isoform not named at the place; Aβ40 (1 nM) by legend of Fig. 8
[1]
  Aβ transport improved by co–transfer of PICALM and LRP1 mini–gene: 89%
[1]; compared to GFP control
  Aβ transcytosis improved by adenoviral–mediated transfer of PICALM: 63%

## FAM–Aβ42: 6-carboxyfluorescein-labeled Aβ42, Anaspec catalog # 23526
[2]
  colocalized Aβ–LRP1/PICALM puncta: rapid increase
